Assay results from the Immune Epitope Database (IEDB).

Tests used:
Assay in all cases: IEDB peptide-MHC binding, purified MHC/competitive/radioactivity; filed as Kd, often an IC50 or EC50 that approximates it; ≥ and ≤ were set here for values at or beyond the usual limits of such assays
[1] = target: HLA-A*02:03
[2] = target: HLA-A*31:01
[3] = target: HLA-A*33:01
[4] = target: HLA-A*11:01
[5] = target: HLA-A*03:01
[6] = target: HLA-A*68:01
[7] = source organism: Dengue virus 4 Philippines/H241/1956
[8] = source organism: Lymphocytic choriomeningitis virus (strain Armstrong)
[9] = source organism: Vaccinia virus WR
[10] = source organism: Lassa virus Josiah
[11] = source organism: SARS coronavirus Tor2
[12] = source organism: Lassa virus GA391
[13] = source organism: Mammarenavirus whitewaterense

Sequence | Kd [2, 9] | Kd [3, 9] | Kd [4, 9] | Kd [5, 9] | Kd [6, 9] | further results
GLFGKGGVV | – | – | – | – | – | Kd [1, 7]: 9.95 nM
KLALITVSGL | – | – | – | – | – | Kd [1, 7]: 7.32 nM
YSKFWYLEH | – | – | – | – | – | Kd [2, 8]: 6010 nM; Kd [3, 8]: 12400 nM; Kd [4, 8]: ≥ 40900 nM; Kd [5, 8]: ≥ 78000 nM; Kd [6, 8]: ≥ 77600 nM
LIVTFRERY | 836 nM | 4130 nM | 187 nM | 4680 nM | 408 nM | –
YMVTDKTAY | ≥ 47800 nM | ≥ 44300 nM | ≥ 26200 nM | ≥ 33700 nM | ≥ 40900 nM | –
FMRDWNSKY | ≥ 77900 nM | ≥ 66300 nM | ≥ 77900 nM | 8370 nM | ≥ 77700 nM | –
ELESLSKRER | 3450 nM | 12600 nM | 4230 nM | ≥ 70100 nM | 388 nM | –
ENAVWDQYK | – | – | – | – | – | Kd [2, 10]: ≥ 22500 nM; Kd [3, 10]: 958 nM; Kd [4, 10]: 6640 nM; Kd [5, 10]: 12600 nM; Kd [6, 10]: 42.9 nM
HSNLTETFR | 0.596 nM | 4.95 nM | 40.6 nM | 112 nM | 0.414 nM | –
KLASAIQKA | – | – | – | – | – | Kd ([1]; source organism: Dengue virus 2 Jamaica/1409/1983): 17.9 nM
STVKTNLYMK | 640 nM | ≥ 70000 nM | 3.96 nM | 212 nM | 2.27 nM | –
VSSLVKNVNK | 1180 nM | ≥ 50000 nM | 40 nM | 172 nM | 3360 nM | –
DFSKSTSPTR | 278 nM | 1040 nM | 4490 nM | 2720 nM | 112 nM | –
SSIVRQLFK | – | – | – | – | – | Kd [2, 11]: 2000 nM; Kd [3, 11]: ≥ 77700 nM; Kd [4, 11]: 73.2 nM; Kd [5, 11]: 58.8 nM; Kd [6, 11]: 392 nM
KAFKNNLSR | 25.4 nM | 4140 nM | 152 nM | 301 nM | 171 nM | –
RQLFKPLTKK | – | – | – | – | – | Kd [2, 11]: 383 nM; Kd [3, 11]: 3670 nM; Kd [4, 11]: 8.16 nM; Kd [5, 11]: 1.05 nM; Kd [6, 11]: 2130 nM
SLMSIISTFH | – | – | – | – | – | Kd [2, 12]: 3740 nM; Kd [3, 12]: ≥ 25000 nM; Kd [4, 12]: 2280 nM; Kd [5, 12]: 850 nM; Kd [6, 12]: 3350 nM
DVFHLYLQY | – | – | – | – | – | Kd [2, 11]: 4240 nM; Kd [3, 11]: 5450 nM; Kd [4, 11]: 10600 nM; Kd [5, 11]: 5470 nM; Kd [6, 11]: 188 nM

Sequence | Kd [2, 9] | Kd [3, 9] | Kd [4, 9] | Kd [5, 9] | Kd [6, 9] | further results
SVSPKLFIR | – | – | – | – | – | Kd [2, 11]: 116 nM; Kd [3, 11]: 12500 nM; Kd [4, 11]: 755 nM; Kd [5, 11]: 7450 nM; Kd [6, 11]: 1420 nM
EVGSIRCVK | 5910 nM | 83 nM | 332 nM | 543 nM | 1.19 nM | –
VVVKDDPDHY | ≥ 70000 nM | ≥ 70000 nM | ≥ 21600 nM | ≥ 28000 nM | ≥ 70200 nM | –
GFCIPSRSK | 179 nM | ≥ 77700 nM | 1900 nM | 973 nM | ≥ 38600 nM | –
VVKWKRDEH | – | – | – | – | – | Kd [2, 8]: ≥ 34800 nM; Kd [3, 8]: ≥ 77700 nM; Kd [4, 8]: 187 nM; Kd [5, 8]: ≥ 37200 nM; Kd [6, 8]: ≥ 77600 nM
GLALYYPSAR | – | – | – | – | – | Kd [2, 11]: 993 nM; Kd [3, 11]: 2840 nM; Kd [4, 11]: 1120 nM; Kd [5, 11]: 226 nM; Kd [6, 11]: 89.8 nM
CICYGSYSLY | 4390 nM | 2040 nM | 341 nM | 0.434 nM | 1580 nM | –
AVMYMGTLSY | – | – | – | – | – | Kd [2, 11]: 3200 nM; Kd [3, 11]: 10800 nM; Kd [4, 11]: 7.78 nM; Kd [5, 11]: 7.67 nM; Kd [6, 11]: 2580 nM
AAYFVGYLK | – | – | – | – | – | Kd [2, 11]: 178 nM; Kd [3, 11]: 5550 nM; Kd [4, 11]: 3.19 nM; Kd [5, 11]: 3.9 nM; Kd [6, 11]: 3.19 nM
LFDFVNEKY | ≥ 30000 nM | ≥ 77700 nM | ≥ 48700 nM | ≥ 78000 nM | ≥ 26100 nM | –
KWMLISSELK | – | – | – | – | – | Kd [2, 13]: 127 nM; Kd [3, 13]: 10500 nM; Kd [4, 13]: 248 nM; Kd [5, 13]: 19.9 nM; Kd [6, 13]: 891 nM
TVCTVCGMWK | – | – | – | – | – | Kd [2, 11]: 188 nM; Kd [3, 11]: 587 nM; Kd [4, 11]: 5.49 nM; Kd [5, 11]: 24 nM; Kd [6, 11]: 52.2 nM
SILDRIDTR | 71 nM | 113 nM | 499 nM | ≥ 78000 nM | 189 nM | –
NAVYQCRKLR | 348 nM | 6350 nM | 17700 nM | 7270 nM | 332 nM | –
ELALTDVEKR | 11800 nM | 16800 nM | ≥ 69800 nM | ≥ 68800 nM | 149 nM | –
QSQMLLIVLK | – | – | – | – | – | Kd [2, 11]: 1410 nM; Kd [3, 11]: 11700 nM; Kd [4, 11]: 10.8 nM; Kd [5, 11]: 1620 nM; Kd [6, 11]: 207 nM
YTHGIVFDGK | 156 nM | 350 nM | 8.46 nM | 7.46 nM | 4.56 nM | –
LFKNVRLLK | 185 nM | 1010 nM | 885 nM | 233 nM | 2090 nM | –
